# Experiments:
# Test in all cases: EC50 of free RNA motif oligo competing protein binding to immobilised probe
# CPSF7 = molecular target: T1, CPSF7 (UniProt Q8N684)
# T1 sequence: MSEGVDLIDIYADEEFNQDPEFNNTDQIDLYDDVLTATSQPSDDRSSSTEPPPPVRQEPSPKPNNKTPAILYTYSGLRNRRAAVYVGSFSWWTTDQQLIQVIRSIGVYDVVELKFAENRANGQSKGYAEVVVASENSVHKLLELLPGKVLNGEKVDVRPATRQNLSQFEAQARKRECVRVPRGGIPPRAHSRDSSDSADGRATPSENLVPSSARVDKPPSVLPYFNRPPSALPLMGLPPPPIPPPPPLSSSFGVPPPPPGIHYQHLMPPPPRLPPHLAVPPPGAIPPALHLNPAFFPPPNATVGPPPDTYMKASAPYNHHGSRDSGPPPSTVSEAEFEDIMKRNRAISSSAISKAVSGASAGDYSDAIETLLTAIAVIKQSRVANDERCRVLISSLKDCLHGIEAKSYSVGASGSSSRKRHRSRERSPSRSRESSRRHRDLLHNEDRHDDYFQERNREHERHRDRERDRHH
# Method in brief: (§1)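 Free RNA oligos (0 nM to 30 μM) competed for 1 h at 4°C in HEK293-FT lysate (2.5 mg protein/well) before a 30 min, 4°C pulldown with the same oligos on NHS-Sepharose beads. Bound proteins were quantified by label-free LC-MS/MS and normalised to the control. Kd was found by multiplying EC50, from a four-parameter log-logistic fit, by a protein-dependent depletion factor.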
# RPS3A = RPS3A (UniProt P61247)
# Method in brief: as §1
# YTHDC2 = molecular target: T2, YTHDC2 (UniProt Q9H6S0)
# T2 sequence: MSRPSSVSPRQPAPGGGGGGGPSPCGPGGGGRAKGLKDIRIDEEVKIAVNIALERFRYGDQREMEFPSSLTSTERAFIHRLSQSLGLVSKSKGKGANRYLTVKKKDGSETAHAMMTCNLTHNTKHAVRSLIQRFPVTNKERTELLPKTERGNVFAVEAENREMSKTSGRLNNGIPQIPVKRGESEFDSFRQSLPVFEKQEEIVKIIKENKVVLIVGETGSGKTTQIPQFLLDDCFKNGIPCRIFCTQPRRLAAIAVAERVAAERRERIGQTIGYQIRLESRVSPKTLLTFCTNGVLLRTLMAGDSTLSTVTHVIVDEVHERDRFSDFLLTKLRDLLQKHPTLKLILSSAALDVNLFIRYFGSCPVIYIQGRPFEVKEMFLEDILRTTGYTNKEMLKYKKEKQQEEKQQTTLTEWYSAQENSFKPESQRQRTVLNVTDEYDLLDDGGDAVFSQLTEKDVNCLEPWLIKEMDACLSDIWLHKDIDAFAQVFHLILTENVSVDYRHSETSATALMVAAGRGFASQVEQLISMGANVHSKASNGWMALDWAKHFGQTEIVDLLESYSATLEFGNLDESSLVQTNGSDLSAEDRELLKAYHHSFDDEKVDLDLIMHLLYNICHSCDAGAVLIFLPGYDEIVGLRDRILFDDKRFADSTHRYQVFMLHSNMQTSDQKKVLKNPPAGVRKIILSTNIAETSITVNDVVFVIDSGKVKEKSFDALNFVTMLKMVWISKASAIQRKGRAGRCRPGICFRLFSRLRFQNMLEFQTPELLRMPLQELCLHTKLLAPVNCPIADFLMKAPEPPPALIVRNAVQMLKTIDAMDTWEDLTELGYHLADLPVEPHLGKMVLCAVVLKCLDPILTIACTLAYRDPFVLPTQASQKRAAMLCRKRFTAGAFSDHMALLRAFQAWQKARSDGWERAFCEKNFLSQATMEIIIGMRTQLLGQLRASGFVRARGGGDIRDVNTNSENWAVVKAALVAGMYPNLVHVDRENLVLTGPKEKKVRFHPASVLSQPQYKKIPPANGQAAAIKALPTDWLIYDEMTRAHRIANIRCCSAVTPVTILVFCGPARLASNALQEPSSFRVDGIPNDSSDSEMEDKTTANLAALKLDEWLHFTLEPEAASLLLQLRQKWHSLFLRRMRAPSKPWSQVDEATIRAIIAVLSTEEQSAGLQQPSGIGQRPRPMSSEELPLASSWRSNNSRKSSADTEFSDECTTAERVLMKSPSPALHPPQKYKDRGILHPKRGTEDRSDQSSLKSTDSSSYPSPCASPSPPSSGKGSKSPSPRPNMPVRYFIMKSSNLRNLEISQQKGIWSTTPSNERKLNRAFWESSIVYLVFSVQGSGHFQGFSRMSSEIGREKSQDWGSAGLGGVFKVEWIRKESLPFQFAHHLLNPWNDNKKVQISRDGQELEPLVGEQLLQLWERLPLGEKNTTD
# Method in brief: as §1
# HNRNPM = molecular target: T3, HNRNPM (UniProt P52272)
# T3 sequence: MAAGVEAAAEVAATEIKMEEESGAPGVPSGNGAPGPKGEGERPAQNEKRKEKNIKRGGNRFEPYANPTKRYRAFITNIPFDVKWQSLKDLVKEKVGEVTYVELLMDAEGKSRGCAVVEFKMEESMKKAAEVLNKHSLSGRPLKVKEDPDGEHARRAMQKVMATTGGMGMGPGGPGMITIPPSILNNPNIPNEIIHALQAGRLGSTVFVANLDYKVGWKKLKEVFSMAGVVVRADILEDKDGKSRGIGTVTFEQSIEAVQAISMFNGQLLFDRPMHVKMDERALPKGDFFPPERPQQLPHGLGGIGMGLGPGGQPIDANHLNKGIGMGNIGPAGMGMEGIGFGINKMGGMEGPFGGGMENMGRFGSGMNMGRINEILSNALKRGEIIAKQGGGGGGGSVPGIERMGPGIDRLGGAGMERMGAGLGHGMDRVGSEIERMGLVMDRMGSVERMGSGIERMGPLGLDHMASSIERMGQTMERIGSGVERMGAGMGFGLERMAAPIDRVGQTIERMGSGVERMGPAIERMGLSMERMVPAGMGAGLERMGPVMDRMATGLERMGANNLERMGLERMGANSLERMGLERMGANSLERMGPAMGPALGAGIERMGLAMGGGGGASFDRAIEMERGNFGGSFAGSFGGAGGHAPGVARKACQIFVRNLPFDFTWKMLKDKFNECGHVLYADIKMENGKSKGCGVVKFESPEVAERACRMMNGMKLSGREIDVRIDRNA
# Method in brief: as §1
sequence,measurement,setting,value
AAUAAA,EC50,CPSF7,8.82 µM
CUGUCCU,EC50,RPS3A,0.106 µM
same,EC50,YTHDC2,2.24 µM
UAUUUAU,EC50,HNRNPM,6.8 µM
